Experimental data reported in PMC12529927, “Functional microRNA targeting without seed pairing”.

Legend:
[1] = target: T1, AGO2 (loaded with guide RNA) (Homo sapiens, UniProt Q9UKV8 1-859); experiment: filter binding; range over four guides; 18 mM HEPES pH 7.4, 100 mM K-acetate, 1 mM Mg-acetate, 0.01% IGEPAL, 0.01 mg/mL yeast tRNA, 5 mM DTT, BSA, glycerol, 37 C, 4 h, 1-5 pM target; kinetics with 10; conditions: protein: recombinant, tags: 3xFLAG-SUMOEu1 (removed by SENPEuB cleavage)
[2] = target: T1, AGO2 (loaded with guide RNA); experiment: filter binding; 18 mM HEPES pH 7.4, 100 mM K-acetate, 1 mM Mg-acetate, 0.01% IGEPAL, 0.01 mg/mL yeast tRNA, 5 mM DTT, BSA, glycerol, 37 C, 4 h, 1-5 pM target; kinetics with 10; conditions: protein: recombinant, tags: 3xFLAG-SUMOEu1 (removed by SENPEuB cleavage)
[3] = target: AGO2 D669A (loaded with guide RNA) (Homo sapiens, UniProt Q9UKV8 1-859, D669A); experiment: hydroxyl radical footprinting; guide 3' region more accessible; 18 mM HEPES pH 7.4, 100 mM K-acetate, 1 mM Mg-acetate, 0.01% IGEPAL, 0.01 mg/mL yeast tRNA, 5 mM DTT, BSA, glycerol, 37 C, 4 h, 1-5 pM target; kinetics with 10; conditions: protein: recombinant, tags: 3xFLAG-SUMOEu1
Sequence of AGO2 D669A (loaded with guide RNA) (Q9UKV8 whole entry D669A): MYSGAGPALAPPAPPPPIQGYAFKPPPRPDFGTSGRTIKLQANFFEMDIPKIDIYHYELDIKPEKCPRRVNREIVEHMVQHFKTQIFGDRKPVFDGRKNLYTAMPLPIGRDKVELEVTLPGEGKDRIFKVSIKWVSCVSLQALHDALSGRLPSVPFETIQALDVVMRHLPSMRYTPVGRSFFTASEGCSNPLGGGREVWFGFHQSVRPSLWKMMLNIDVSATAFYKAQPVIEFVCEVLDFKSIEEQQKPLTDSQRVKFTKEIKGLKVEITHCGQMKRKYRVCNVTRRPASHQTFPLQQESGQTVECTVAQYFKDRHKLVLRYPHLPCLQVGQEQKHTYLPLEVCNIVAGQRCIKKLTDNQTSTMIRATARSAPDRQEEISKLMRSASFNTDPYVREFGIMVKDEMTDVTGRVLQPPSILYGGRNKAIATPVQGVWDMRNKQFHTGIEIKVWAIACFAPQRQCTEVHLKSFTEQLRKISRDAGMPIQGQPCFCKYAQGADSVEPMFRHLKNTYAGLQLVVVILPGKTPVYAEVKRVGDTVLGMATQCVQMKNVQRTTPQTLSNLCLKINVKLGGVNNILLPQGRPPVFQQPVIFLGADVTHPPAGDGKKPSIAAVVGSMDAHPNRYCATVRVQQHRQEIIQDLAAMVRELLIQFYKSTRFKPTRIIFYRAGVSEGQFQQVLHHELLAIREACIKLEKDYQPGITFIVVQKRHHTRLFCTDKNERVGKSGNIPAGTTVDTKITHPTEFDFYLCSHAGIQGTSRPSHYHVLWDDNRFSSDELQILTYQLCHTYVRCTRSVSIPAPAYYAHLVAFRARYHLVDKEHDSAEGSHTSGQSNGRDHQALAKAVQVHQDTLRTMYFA

[4] = target: T1, AGO2 (loaded with guide RNA); experiment: filter binding; not above no-site control; 18 mM HEPES pH 7.4, 100 mM K-acetate, 1 mM Mg-acetate, 0.01% IGEPAL, 0.01 mg/mL yeast tRNA, 5 mM DTT, BSA, glycerol, 37 C, 4 h, 1-5 pM target; kinetics with 10; conditions: protein: recombinant, tags: 3xFLAG-SUMOEu1 (removed by SENPEuB cleavage), label: 32P target
[5] = target: T1, AGO2 (loaded with guide RNA); experiment: filter binding; Kd printed only in figure; similar to m11_23; 18 mM HEPES pH 7.4, 100 mM K-acetate, 1 mM Mg-acetate, 0.01% IGEPAL, 0.01 mg/mL yeast tRNA, 5 mM DTT, BSA, glycerol, 37 C, 4 h, 1-5 pM target; kinetics with 10; conditions: protein: recombinant, tags: 3xFLAG-SUMOEu1 (removed by SENPEuB cleavage), label: 32P target, seed g2-8 paired
[6] = target: T1, AGO2 (loaded with guide RNA); experiment: filter binding; modest boost over m11_23; 18 mM HEPES pH 7.4, 100 mM K-acetate, 1 mM Mg-acetate, 0.01% IGEPAL, 0.01 mg/mL yeast tRNA, 5 mM DTT, BSA, glycerol, 37 C, 4 h, 1-5 pM target; kinetics with 10; conditions: protein: recombinant; tags: 3xFLAG-SUMOEu1 (removed by SENPEuB cleavage); label: 32P target; g11-23 and g2-5 paired, offset +2
[7] = target: T1, AGO2 (loaded with guide RNA); experiment: filter binding; Kd printed only in figure; similar to m9_22; 18 mM HEPES pH 7.4, 100 mM K-acetate, 1 mM Mg-acetate, 0.01% IGEPAL, 0.01 mg/mL yeast tRNA, 5 mM DTT, BSA, glycerol, 37 C, 4 h, 1-5 pM target; kinetics with 10; conditions: protein: recombinant, tags: 3xFLAG-SUMOEu1 (removed by SENPEuB cleavage), label: 32P target, seed g2-8 paired
[8] = target: T1, AGO2 (loaded with guide RNA); experiment: filter binding; upper bound, ~5 pM; 18 mM HEPES pH 7.4, 100 mM K-acetate, 1 mM Mg-acetate, 0.01% IGEPAL, 0.01 mg/mL yeast tRNA, 5 mM DTT, BSA, glycerol, 37 C, 4 h, 1-5 pM target; kinetics with 10; conditions: protein: recombinant, tags: 3xFLAG-SUMOEu1 (removed by SENPEuB cleavage), label: 32P target, offset +2
[9] = target: T1, AGO2 (loaded with guide RNA); experiment: filter binding; no boost over m11_23; 18 mM HEPES pH 7.4, 100 mM K-acetate, 1 mM Mg-acetate, 0.01% IGEPAL, 0.01 mg/mL yeast tRNA, 5 mM DTT, BSA, glycerol, 37 C, 4 h, 1-5 pM target; kinetics with 10; conditions: protein: recombinant, tags: 3xFLAG-SUMOEu1 (removed by SENPEuB cleavage), label: 32P target, offset +2
[10] = label: 32P target, g13-22 paired
[11] = label: 32P target, complementary to g9-19

T1 sequence (Q9UKV8 whole entry): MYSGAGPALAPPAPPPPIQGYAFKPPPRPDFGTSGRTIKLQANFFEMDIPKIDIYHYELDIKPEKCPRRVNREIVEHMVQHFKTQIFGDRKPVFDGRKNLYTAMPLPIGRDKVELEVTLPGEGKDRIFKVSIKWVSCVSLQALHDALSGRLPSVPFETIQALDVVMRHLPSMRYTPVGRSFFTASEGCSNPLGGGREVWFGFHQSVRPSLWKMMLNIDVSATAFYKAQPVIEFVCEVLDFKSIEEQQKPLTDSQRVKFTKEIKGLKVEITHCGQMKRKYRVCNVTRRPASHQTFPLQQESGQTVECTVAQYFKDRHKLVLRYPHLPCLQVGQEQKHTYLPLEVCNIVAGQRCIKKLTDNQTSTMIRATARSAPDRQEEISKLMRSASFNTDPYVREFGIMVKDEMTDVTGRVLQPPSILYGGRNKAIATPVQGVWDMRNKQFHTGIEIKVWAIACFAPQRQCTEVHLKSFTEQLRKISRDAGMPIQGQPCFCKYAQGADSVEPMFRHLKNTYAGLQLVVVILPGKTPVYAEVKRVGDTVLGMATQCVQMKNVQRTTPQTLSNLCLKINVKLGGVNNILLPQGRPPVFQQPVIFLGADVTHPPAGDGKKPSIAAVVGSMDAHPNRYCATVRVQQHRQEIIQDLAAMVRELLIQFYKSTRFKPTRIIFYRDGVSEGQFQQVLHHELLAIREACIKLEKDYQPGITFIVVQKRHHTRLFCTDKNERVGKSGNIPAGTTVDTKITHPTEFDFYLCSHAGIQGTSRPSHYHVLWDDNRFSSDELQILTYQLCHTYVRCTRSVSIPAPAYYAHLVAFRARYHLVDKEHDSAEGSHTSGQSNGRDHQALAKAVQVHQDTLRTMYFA

B1: miR-155 wt / m13_22 (mixed)
RNA 1: UUAAUGCUAAUCGUGAUAGGGGU
RNA 2: UUUUUUCCCCUAUCACUUUUUUUUUUUUUUUU
modifications: 5'-phosphate guide
Kd [1, 10]: ~205 pM

B2: miR-155 mut / m13_22 (mixed)
RNA 1: UUCGUGCUAAUCGUGAUAGGGGU
RNA 2: UUUUUUCCCCUAUCACUUUUUUUUUUUUUUUU
modifications: 5'-phosphate guide
Kd [1, 10]: ~205 pM

B3: let-7a / m11_22 (also labelled m10_22) (mixed)
RNA 1: UGAGGUAGUAGGUUGUAUAGUU
RNA 2: UUUUUAACUAUACAACCUUUUUUUUUUUUUUU
modifications: 5'-phosphate guide
Kd ([2]; g11-22 paired): ~400 pM

B4: miR-155 mut / m11_23 (mixed)
RNA 1: UUCGUGCUAAUCGUGAUAGGGGU
RNA 2: UUUUUUACCCCUAUCACGACCUUUUUUUUUUUUUUU
modifications: 5'-phosphate guide
Kd ([1]; label: 32P target, g11-23 paired): ~26.5 pM

B5: miR-155 wt / m11_23 (mixed)
RNA 1: UUAAUGCUAAUCGUGAUAGGGGU
RNA 2: UUUUUUACCCCUAUCACGACCUUUUUUUUUUUUUUU
modifications: 5'-phosphate guide
binding result ([3]; guide:target, g11-23 paired): binds | Kd ([1]; g11-23 paired): ~26.5 pM

B6: miR-124 wt / m9_22|+3|m1_8 (mixed)
RNA 1: UAAGGCACGCGGUGAAUGCCAA
RNA 2: UUUUUUUUGGCAUUCACCGCUUUGUGCCUUAUUUUUUUUU
modifications: 5'-phosphate guide
binding result ([3]; label: 32P guide, g9-22 and g1-8 paired, offset +3): binds

B7: miR-155 wt / m13_20 (mixed)
RNA 1: UUAAUGCUAAUCGUGAUAGGGGU
RNA 2: UUUUUUUCCUAUCACUUUUUUUUUUUUUU
modifications: 5'-phosphate guide
binding result ([4]; g13-20 paired): no binding

B8: miR-124 wt / m9_22 (mixed)
RNA 1: UAAGGCACGCGGUGAAUGCCAA
RNA 2: UUUUUUUUGGCAUUCACCGCUUUUUUUUUUUUUUUU
modifications: 5'-phosphate guide
binding result ([3]; guide:target, complementary to g9-22): binds | Kd ([1]; complementary to g9-22): ~26.5 pM

B9: miR-124 mut / m9_22 (mixed)
RNA 1: UCUGGCUCGCGGUGAAUGCCAA
RNA 2: UUUUUUUUGGCAUUCACCGCUUUUUUUUUUUUUUUU
modifications: 5'-phosphate guide
Kd ([1]; label: 32P target, complementary to g9-22): ~26.5 pM

B10: miR-155 mut / 7mer-m8 (mixed)
RNA 1: UUCGUGCUAAUCGUGAUAGGGGU
RNA 2: UUUUUUUUUAAAGCACGAUUUUUU
modifications: 5'-phosphate guide
binding result [5]: binds

B11: let-7a / 7mer-m8 (mixed)
RNA 1: UGAGGUAGUAGGUUGUAUAGUU
RNA 2: UUUUUUUUUUUUUUUUUUCUACCUCUUUUUUU
modifications: 5'-phosphate guide
Kd ([2]; label: 32P target, seed g2-8 paired): < 5 pM

B12: miR-155 wt / 7mer-m8 (mixed)
RNA 1: UUAAUGCUAAUCGUGAUAGGGGU
RNA 2: UUUUUUUUUAAAGCAUUAUUUUUU
modifications: 5'-phosphate guide
binding result [5]: binds

B13: miR-155 mut / m11_23|+2|m2_5 (mixed)
RNA 1: UUCGUGCUAAUCGUGAUAGGGGU
RNA 2: UUUUUUACCCCUAUCACGACCUUUUUACGAUUUUUUUUUUUUUU
modifications: 5'-phosphate guide
binding result [6]: binds

B14: miR-155 mut / m13_20 (mixed)
RNA 1: UUCGUGCUAAUCGUGAUAGGGGU
RNA 2: UUUUUUUCCUAUCACUUUUUUUUUUUUUU
modifications: 5'-phosphate guide
binding result ([4]; g13-20 paired): no binding

B15: miR-124 wt / 7mer-m8 (mixed)
RNA 1: UAAGGCACGCGGUGAAUGCCAA
RNA 2: UUUUUUUUUUUGUGCCUUUUUUUU
modifications: 5'-phosphate guide
binding result [7]: binds

B16: miR-155 mut / m11_23|+2|m2_7 (mixed)
RNA 1: UUCGUGCUAAUCGUGAUAGGGGU
RNA 2: UUUUACCCCUAUCACGACCUUUGCACGAUUUU
modifications: 5'-phosphate guide
Kd ([8]; g11-23 and g2-7 paired): < 5 pM

B17: miR-155 mut / m11_23|+2|m2_3 (mixed)
RNA 1: UUCGUGCUAAUCGUGAUAGGGGU
RNA 2: UUUUACCCCUAUCACGACCUUUUUUUGAUUUU
modifications: 5'-phosphate guide
binding result ([9]; g11-23 and g2-3 paired): binds

B18: miR-155 mut / m11_23|+2|m2_4 (mixed)
RNA 1: UUCGUGCUAAUCGUGAUAGGGGU
RNA 2: UUUUACCCCUAUCACGACCUUUUUUCGAUUUU
modifications: 5'-phosphate guide
binding result ([9]; g11-23 and g2-4 paired): binds

B19: miR-155 mut / m11_23|+2|m2_8 (mixed)
RNA 1: UUCGUGCUAAUCGUGAUAGGGGU
RNA 2: UUUUACCCCUAUCACGACCUUAGCACGAUUUU
modifications: 5'-phosphate guide
Kd ([8]; g11-23 and g2-8 paired): < 5 pM

B20: miR-124 mut / m11_18 (mixed)
RNA 1: UCUGGCUCGCGGUGAAUGCCAA
RNA 2: UUUUUUUUCAUUCACCUUUUUUUUUUUU
modifications: 5'-phosphate guide
binding result ([4]; g11-18 paired): no binding

B21: miR-155 mut / m11_23|+2|m1_8 (mixed)
RNA 1: UUCGUGCUAAUCGUGAUAGGGGU
RNA 2: UUUUUUACCCCUAUCACGACCUUAGCACGAAUUUUUUUUU
modifications: 5'-phosphate guide
Kd ([8]; g11-23 and g1-8 paired): < 5 pM

B22: miR-155 wt / m11_23|+2|m1_8 (mixed)
RNA 1: UUAAUGCUAAUCGUGAUAGGGGU
RNA 2: UUUUUUACCCCUAUCACGACCUUAGCAUUAAUUUUUUUUU
modifications: 5'-phosphate guide
binding result ([3]; label: 32P target (kon) or 32P guide (probing), g11-23 and g1-8 paired, offset +2): binds

B23: miR-124 mut / 7mer-m8 (mixed)
RNA 1: UCUGGCUCGCGGUGAAUGCCAA
RNA 2: UUUUUUUUUUUGAGCCAGUUUUUU
modifications: 5'-phosphate guide
binding result [7]: binds

B24: miR-124 wt / m11_18 (mixed)
RNA 1: UAAGGCACGCGGUGAAUGCCAA
RNA 2: UUUUUUUUCAUUCACCUUUUUUUUUUUU
modifications: 5'-phosphate guide
binding result ([4]; g11-18 paired): no binding

B25: miR-124 wt / m9_19 (mixed)
RNA 1: UAAGGCACGCGGUGAAUGCCAA
RNA 2: UUUUUUGCAUUCACCGCUUUUUUUUUUUUUUU
modifications: 5'-phosphate guide
Kd [1, 11]: ~205 pM

B26: miR-124 mut / m9_19 (mixed)
RNA 1: UCUGGCUCGCGGUGAAUGCCAA
RNA 2: UUUUUUGCAUUCACCGCUUUUUUUUUUUUUUU
modifications: 5'-phosphate guide
Kd [1, 11]: ~205 pM

B27: miR-155 mut / m11_23|+2|m2 (mixed)
RNA 1: UUCGUGCUAAUCGUGAUAGGGGU
RNA 2: UUUUACCCCUAUCACGACCUUUUUUUUAUUUU
modifications: 5'-phosphate guide
binding result ([9]; g11-23 and g2 paired): binds
